Assay results from patent US20090099029.

T1: Bovine, dephosphorylated, Myelin Basic Protein (MBP), P02687
T1 chain: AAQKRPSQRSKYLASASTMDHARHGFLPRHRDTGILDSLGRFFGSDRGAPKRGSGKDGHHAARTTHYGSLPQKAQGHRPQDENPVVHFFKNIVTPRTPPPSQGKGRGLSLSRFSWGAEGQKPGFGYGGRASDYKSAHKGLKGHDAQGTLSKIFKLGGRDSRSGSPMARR

B1: TAOK2(TAO1) (protein)
chain: MPAGGRAGSLKDPDVAELFFKDDPEKLFSDLREIGHGSFGAVYFARDVRNSEVVAIKKMSYSGKQSNEKWQDIIKEVRFLQKLRHPNTIQYRGCYLREHTAWLVMEYCLGSASDLLEVHKKPLQEVEIAAVTHGALQGLAYLHSHNMIHRDVKAGNILLSEPGLVKLGDFGSASIMAPANSFVGTPYWMAPEVILAMDEGQYDGKVDVWSLGITCIELAERKPPLFNMNAMSALYHIAQNESPVLQSGHWSEYFRNFVDSCLQKIPQDRPTSEVLLKHRFVLRERPPTVIMDLIQRTKDAVRELDNLQYRKMKK
B2: STK22D(TSSK1) (protein)
chain: MDDAAVLKRRGYLLGINLGEGSYAKVKSAYSERLKFNVAIKIIDRKKAPADFLEKFLPREIEILAMLNHCSIIKTYEIFETSHGKVYIVMELAVQGDLLELIKTRGALHEDEARKKFHQLSLAIKYCHDLDVVHRDLKCDNLLLDKDFNIKLSDFSFSKRCLRDDSGRMALSKTFCGSPAYAAPEVLQGIPYQPKVYDIWSLGVILYIMVCGSMPYDDSNIKKMLRIQKEHRVNFPRSKHLTGECKDLIYHMLQPDVNRRLHIDEILSHCWMQPKARGSPSVAINKEGESSRGTEPLWTPEPGSDKKSATKLEPEGEAQPQAQPETKPEGTAMQMSRQSEILGFPSKPSTMETEEGPPQQPPETRAQ
B3: STK22B(TSSK2) (protein)
chain: MDDATVLRKKGYIVGINLGKGSYAKVKSAYSERLKFNVAVKIIDRKKTPTDFVERFLPREMDILATVNHGSIIKTYEIFETSDGRIYIIMELGVQGDLLEFIKCQGALHEDVARKMFRQLSSAVKYCHDLDIVHRDLKCENLLLDKDFNIKLSDFGFSKRCLRDSNGRIILSKTFCGSAAYAAPEVLQSIPYQPKVYDIWSLGVILYIMVCGSMPYDDSDIRKMLRIQKEHRVDFPRSKNLTCECKDLIYRMLQPDVSQRLHIDEILSHSWLQPPKPKATSSASFKREGEGKYRAECKLDTKTGLRPDHRPDHKLGAKTQHRLLVVPENENRMEDRLAETSRAKDHHISGAEVGKAST
B4: TAOK3(JIK) (protein)
chain: MRKGVLKDPEIADLFYKDDPEELFIGLHEIGHGSFGAVYFATNAHTSEVVAIKKMSYSGKQTHEKWQDILKEVKFLRQLKHPNTIEYKGCYLKEHTAWLVMEYCLGSASDLLEVHKKPLQEVEIAAITHGALHGLAYLHSHALIHRDIKAGNILLTEPGQVKLADFGSASMASPANSFVGTPYWMAPEVILAMDEGQYDGKVDIWSLGITCIELAERKPPLFNMNAMSALYHIAQNDSPTLQSNEWTDSFRRFVDYCLQKIPQERPTSAELLRHDFVRRDRPLRVLIDLIQRTKDAVRELDNLQYRKMKKILFQETRNGPLNESQEDEEDSEHGTSLNREMDSLGSNHSIPSMSVSTGSQSSSVNSMQEVMDESSSELVMMHDDESTINSSSSVVHKKDHVFIRDEAGHGDPRPEPRPTQSVQSQALHYRNRERFATIKSASLVTRQIHEHEQENELREQMSGYKRMRRQHQKQLIALENKLKAEMDEHRLKLQKEVETHANNSSIELEKLAKKQVAIIEKEAKVAAADEKKFQQQILAQQKKDLTTFLESQKKQYKICKEKIKEEMNEDHSTPKKEKQERISKHKENLQHTQAEEEAHLLTQQRLYYDKNCRFFKRKIMIKRHEVEQQNIREELNKKRTQKEMEHAMLIRHDESTRELEYRQLHTLQKLRMDLIRLQHQTELENQLEYNKRRERELHRKHVMELRQQPKNLKAMEMQIKKQFQDTCKVQTKQYKALKNHQLEVTPKNEHKTILKTLKDEQTRKLAILAEQYEQSINEMMASQALRLDEAQEAECQALRLQLQQEMELLNAYQSKIKMQTEAQHERELQKLEQRVSLRRAHLEQKIEEELAALQKERSERIKNLLERQEREIETFDMESLRMGFGNLVTLDFPKEDYR
B5: FLT3 (protein)
chain: HKYKKQFRYESQLQMVQVTGSSDNEYFYVDFREYEYDLKWEFPRENLEFGKVLGSGAFGKVMNATAYGISKTGVSIQVAVKMLKEKADSSEREALMSELKMMTQLGSHENIVNLLGACTLSGPIYLIFEYCCYGDLLNYLRSKREKFHRTWTEIFKEHNFSFYPTFQSHPNSSMPGSREVQIHPDSDQISGLHGNSFHSEDEIEYENQKRLEEEEDLNVLTFEDLLCFAYQVAKGMEFLEFKSCVHRDLAARNVLVTHGKVVKICDFGLARDIMSDSNYVVRGNARLPVKWMAPESLFEGIYTIKSDVWSYGILLWEIFSLGVNPYPGIPVDANFYKLIQNGFKMDQPFYATEEIYIIMQSCWAFDSRKRPSFPNLTSFLGCQLADAEEAMYQNVDGRVSECPHTYQNRRPFSREMDLGLLSPQAQVEDS
B6: FLT1(VEGFR1) (protein)
chain: RKMKRSSSEIKTDYLSIIMDPDEVPLDEQCERLPYDASKWEFARERLKLGKSLGRGAFGKVVQASAFGIKKSPTCRTVAVKMLKEGATASEYKALMTELKILTHIGHHLNVVNLLGACTKQGGPLMVIVEYCKYGNLSNYLKSKRDLFFLNKDAALHMEPKKEKMEPGLEQGKKPRLDSVTSSESFASSGFQEDKSLSDVEEEEDSDGFYKEPITMEDLISYSFQVARGMEFLSSRKCIHRDLAARNILLSENNVVKICDFGLARDIYKNPDYVRKGDTRLPLKWMAPESIFDKIYSTKSDVWSYGVLLWEIFSLGGSPYPGVQMDEDFCSRLREGMRMRAPEYSTPEIYQIMLDCWHRDPKERPRFAELVEKLGDLLQANVQQDGKDYIPINAILTGNSGFTYSTPAFSEDFFKESISAPKFNSGSSDDVRYVNAFKFMSLERIKTFEELLPNATSMFDDYQGDSSTLLASPMLKRFTWTDSKPKASLKIDLRVTSKSKESGLSDVSRPSFCHSSCGHVSEGKRRFTYDHAELERKIACCSPPPDYNSVVLYSTPPI
B7: FGFR4 (protein)
chain: RGQALHGRHPRPPATVQKLSRFPLARQFSLESGSSGKSSSSLVRGVRLSSSGPALLAGLVSLDLPLDPLWEFPRDRLVLGKPLGEGCFGQVVRAEAFGMDPARPDQASTVAVKMLKDNASDKDLADLVSEMEVMKLIGRHKNIINLLGVCTQEGPLYVIVECAAKGNLREFLRARRPPGPDLSPDGPRSSEGPLSFPVLVSCAYQVARGMQYLESRKCIHRDLAARNVLVTEDNVMKIADFGLARGVHHIDYYKKTSNGRLPVKWMAPEALFDRVYTHQSDVWSFGILLWEIFTLGGSPYPGIPVEELFSLLREGHRMDRPPHCPPELYGLMRECWHAAPSQRPTFKQLVEALDKVLLAVSEEYLDLRLTFGPYSPSGGDASSTCSSSDSVFSHDPLPLGSSSFPFGSGVQT
B8: TBK1 (protein)
chain: MQSTSNHLWLLSDILGQGATANVFRGRHKKTGDLFAIKVFNNISFLRPVDVQMREFEVLKKLNHKNIVKLFAIEEETTTRHKVLIMEFCPCGSLYTVLEEPSNAYGLPESEFLIVLRDVVGGMNHLRENGIVHRDIKPGNIMRVIGEDGQSVYKLTDFGAARELEDDEQFVSLYGTEEYLHPDMYERAVLRKDHQKKYGATVDLWSIGVTFYHAATGSLPFRPFEGPRRNKEVMYKIITGKPSGAISGVQKAENGPIDWSGDMPVSCSLSRGLQVLLTPVLANILEADQEKCWGFDQFFAETSDILHRMVIHVFSLQQMTAHKIYIHSYNTATIFHELVYKQTKIISSNQELIYEGRRLVLEPGRLAQHFPKTTEENPIFVVSREPLNTIGLIYEKISLPKVHPRYDLDGDASMAKAITGVVCYACRIASTLLLYQELMRKGIRWLIELIKDDYNETVHKKTEVVITLDFCIRNIEKTVKVYEKLMKINLEAAELGEISDIHTKLLRLSSSQGTIETSLQDIDSRLSPGGSLADAWAHQEGTHPKDRNVEKLQVLLNCMTEIYYQFKKDKAERRLAYNEEQIHKFDKQKLYYHATKAMTHFTDECVKKYEAFLNKSEEWIRKMLHLRKQLLSLTNQCFDIEEEVSKYQEYTNELQETLPQKMFTASSGIKHTMTPIYPSSNTLVEMTLGMKKLKEEMEGVVKELAENNHILERFGSLTMDGGLRNVDCL
B9: FGFR2 (protein)
chain: RMKNTTKKPDFSSQPAVHKLTKRIPLRRQVTVSAESSSSMNSNTPLVRITTRLSSTADTPMLAGVSEYELPEDPKWEFPRDKLTLGKPLGEGCFGQVVMAEAVGIDKDKPKEAVTVAVKMLKDDATEKDLSDLVSEMEMMKMIGKHKNIINLLGACTQDGPLYVIVEYASKGNLREYLRARRPPGMEYSYDINRVPEEQMTFKDLVSCTYQLARGMEYLASQKCIHRDLAARNVLVTENNVMKIADFGLARDINNIDYYKKTTNGRLPVKWMAPEALFDRVYTHQSDVWSFGVLMWEIFTLGGSPYPGIPVEELFKLLKEGHRMDKPANCTNELYMMMRDCWHAVPSQRPTFKQLVEDLDRILTLTTNEEYLDLSQPLEQYSPSYPDTRSSCSSGDDSVFSPDPMPYEPCLPQYPHINGSVKT
B10: TTK (protein)
chain: MESEDLSGRELTIDSIMNKVRDIKNKFKNEDLTDELSLNKISADTTDNSGTVNQIMMMANNPEDWLSLLLKLEKNSVPLSDALLNKLIGRYSQAIEALPPDKYGQNESFARIQVRFAELKAIQEPDDARDYFQMARANCKKFAFVHISFAQFELSQGNVKKSKQLLQKAVERGAVPLEMLEIALRNLNLQKKQLLSEEEKKNLSASTVLTAQESFSGSLGHLQNRNNSCDSRGQTTKARFLYGENMPPQDAEIGYRNSLRQTNKTKQSCPFGRVPVNLLNSPDCDVKTDDSVVPCFMKRQTSRSECRDLVVPGSKPSGNDSCELRNLKSVQNSHFKEPLVSDEKSSELIITDSITLKNKTESSLLAKLEETKEYQEPEVPESNQKQWQSKRKSECINQNPAASSNHWQIPELARKVNTEQKHTTFEQPVFSVSKQSPPISTSKWFDPKSICKTPSSNTLDDYMSCFRTPVVKNDFPPACQLSTPYGQPACFQQQQHQILATPLQNLQVLASSSANECISVKGRIYSILKQIGSGGSSKVFQVLNEKKQIYAIKYVNLEEADNQTLDSYRNEIAYLNKLQQHSDKIIRLYDYEITDQYIYMVMECGNIDLNSWLKKKKSIDPWERKSYWKNMLEAVHTIHQHGIVHSDLKPANFLIVDGMLKLIDFGIANQMQPDTTSVVKDSQVGTVNYMPPEAIKDMSSSRENGKSKSKISPKSDVWSLGCILYYMTYGKTPFQQIINQISKLHAIIDPNHEIEFPDIPEKDLQDVLKCCLKRDPKQRISIPELLAHPYVQIQTHPVNQMAKGTTEEMKYVLGQLVGLNSPNSILKAAKTLYEHYSGGESHNSSSSKTFEKKRGKK
B11: FGFR3 (protein)
chain: RLRSPPKKGLGSPTVHKISRFPLKRQVSLESNASMSSNTPLVRIARLSSGEGPTLANVSELELPADPKWELSRARLTLGKPLGEGCFGQVVMAEAIGIDKDRAAKPVTVAVKMLKDDATDKDLSDLVSEMEMMKMIGKHKNIINLLGACTQGGPLYVLVEYAAKGNLREFLRARRPPGLDYSFDTCKPPEEQLTFKDLVSCAYQVARGMEYLASQKCIHRDLAARNVLVTEDNVMKIADFGLARDVHNLDYYKKTTNGRLPVKWMAPEALFDRVYTHQSDVWSFGVLLWEIFTLGGSPYPGIPVEELFKLLKEGHRMDKPANCTHDLYMIMRECWHAAPSQRPTFKQLVEDLDRVLTVTSTDEYLDLSAPFEQYSPGGQDTPSSSSSGDDSVFAHDLLPPAPPSSGGSRT

Molecular target: T1, Bovine, dephosphorylated, Myelin Basic …

MBP Kinase Activity, Strong:
B1
B2
B4
B5
B6
B7
B8
B9
B11

MBP Kinase Activity, Negative:
B3
B10
